Assay results published in patent EP2450379B1.

Molecular target: HA in BPL-inactivated virus preparation of A/New Caledonia/20/99 (H1N1) (influenza A virus A/New Caledonia/20/99 (H1N1))
Assay: ELISA, IgG 5 µg/ml

| Substance | OD 492nm [OD 492nm] |
| --- | --- |
| CR6261 (antibody) | 1.46 |
| CR3014 (antibody) | 0.09 |
